# Measured values published in patent publication US20240294650A1 (Alector, published 2024).
# Residue numbers refer to the chain shown, from its start.
# T1: mouse MerTK overexpressed on CHO cells (mouse, UniProt Q60805 19-994)
# T1 construct: whole, on cells; also called CHO-muMerTK OE
# T1 sequence (looked up): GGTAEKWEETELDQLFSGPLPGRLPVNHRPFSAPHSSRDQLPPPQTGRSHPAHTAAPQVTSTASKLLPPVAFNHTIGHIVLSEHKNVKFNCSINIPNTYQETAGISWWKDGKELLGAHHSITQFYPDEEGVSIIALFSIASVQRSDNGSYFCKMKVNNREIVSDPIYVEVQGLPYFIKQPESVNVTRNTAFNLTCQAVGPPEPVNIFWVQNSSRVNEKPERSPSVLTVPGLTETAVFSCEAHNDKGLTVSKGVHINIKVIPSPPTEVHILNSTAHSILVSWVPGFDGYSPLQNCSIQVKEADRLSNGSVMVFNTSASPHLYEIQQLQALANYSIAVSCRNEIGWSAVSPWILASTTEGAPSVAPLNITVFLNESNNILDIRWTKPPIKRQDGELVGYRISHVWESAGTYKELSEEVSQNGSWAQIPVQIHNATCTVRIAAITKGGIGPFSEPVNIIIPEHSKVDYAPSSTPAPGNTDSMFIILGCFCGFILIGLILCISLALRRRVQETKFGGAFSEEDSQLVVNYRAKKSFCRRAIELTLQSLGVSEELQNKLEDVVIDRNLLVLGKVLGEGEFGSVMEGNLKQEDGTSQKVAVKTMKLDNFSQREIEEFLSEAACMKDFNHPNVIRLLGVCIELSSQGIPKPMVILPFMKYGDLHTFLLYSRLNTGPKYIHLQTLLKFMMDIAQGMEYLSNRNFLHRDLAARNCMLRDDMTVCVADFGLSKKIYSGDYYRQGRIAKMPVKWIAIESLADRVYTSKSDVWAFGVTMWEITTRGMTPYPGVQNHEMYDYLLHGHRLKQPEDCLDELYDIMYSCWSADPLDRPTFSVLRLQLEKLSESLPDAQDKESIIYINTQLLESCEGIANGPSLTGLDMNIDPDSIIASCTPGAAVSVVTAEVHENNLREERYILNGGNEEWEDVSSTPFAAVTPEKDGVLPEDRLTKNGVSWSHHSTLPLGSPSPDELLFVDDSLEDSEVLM
# T2: Recombinant human MerTK-human Fc Chimera protein (human, UniProt Q12866 26-499, limits assumed)
# T2 construct: bought construct; also called MerTK-Fc (R&D systems, Cat #391-MR-100)
# T2 sequence: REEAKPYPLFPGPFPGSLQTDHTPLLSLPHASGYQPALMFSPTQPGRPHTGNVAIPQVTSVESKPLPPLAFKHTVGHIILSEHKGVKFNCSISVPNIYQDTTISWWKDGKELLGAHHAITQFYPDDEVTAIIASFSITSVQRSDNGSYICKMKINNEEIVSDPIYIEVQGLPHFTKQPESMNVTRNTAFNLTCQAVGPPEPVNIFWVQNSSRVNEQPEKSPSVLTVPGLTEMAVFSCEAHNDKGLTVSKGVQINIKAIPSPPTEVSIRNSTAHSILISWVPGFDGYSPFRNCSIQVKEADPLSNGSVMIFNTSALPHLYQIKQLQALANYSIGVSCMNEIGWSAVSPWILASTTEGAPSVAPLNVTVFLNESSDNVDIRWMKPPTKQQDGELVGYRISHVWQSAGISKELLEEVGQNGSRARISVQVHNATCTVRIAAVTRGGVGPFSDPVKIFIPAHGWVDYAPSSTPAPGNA
# B1: MTK-224 (antibody, human IgG1, V domains shown)
# VH: QVQLQQPGAELVKPGASVKVSCKASGYTFTSYWMHWVKQRPGQGLEWIGRIHPFDSDTNYNQKFKGKATLTVDKSSSTAYMQLSSLTSEDSAVYYCSIAGFAYWGQGTLVTVSA
# VL: DIVMTQSPATLSVTPGDRVSLSCRASQIISDYLNWYQQKSHESPRLLIKYASQSISGIPSRFSGSGSGSDFTLSINSVEPEDVGVYYCQNGHSFPLTFGAGTKLELK
# B2: MTK-209 (antibody, human IgG1, V domains shown)
# VH: B1 VH with S31N, M34I, D57E, T58P, Q82H, S84T, S97A, I98L, G100S
# VL: ETTVTQSPASLSMAMGEKATIRCITSTDIDDKMNWYQQKPGKPPKLLISAGNTLRPGVPSRFSSSGYGTDFVLTVENMLSEDVADYYCLQGGALPLTFGSGTKLEIK
# B3: MTK-201 (antibody, human IgG1, V domains shown)
# VH: QVQLRQSGPGLVQPSQSLSITCTVSGFSLSNYGLHWVRQSPGKGLEWLGVIWSGGITDYNAAFISRLSIIKDNSRSQVFFKMNSLQADDTAIYYCARKGHDPYAMDFWGQGTSVTVSS
# VL: QIVLTQSPPIMSAFLGERVTMTCTASSSVSSSYLHWYRQMPGSSPKLWIYDTSNLASGVPARFSGSGSGTSYSLTISSMEAEDAATYYCHQYHHSPYTFGGGTKLEIK
# B4: MTK-228 (antibody, human IgG1, V domains shown)
# VH: QDQLQQSGPELVKPGASVKISCKASGYSFTSYYIHWVKQRPGQGLEWVGWIFPGNGNTKYNERFKGKATLTADTSSSTAYMQLSSLTSEDSAVYYCARLGLIYALDYWGQGTSVTVSS
# VL: DAVMTQTPLSLPVSLGDQASISCRSSQSLENSNGNTYLHWYLQKPGQSPQLLIYRVSNRFSGVLDRFSGSGSGTDFTLKISRVEAEDLGVYFCLQVTHVPFTFGSGTKLEIK
# B5: MTK-218 (antibody, human IgG1, V domains shown)
# VH: B4 VH with D2V, A16T, E46D, V48I, G56R, K59Q, R63K
# VL: B4 VL with N35H, L64Q
# B6: MTK-226 (antibody, human IgG1, V domains shown)
# VH: B4 VH with D2V, V48I, R63N, K65R
# VL: B4 VL with N31S, K79Q
# B7: MTK-203 (antibody, human IgG1, V domains shown)
# VH: QVQLQQPGAELVKPGASVKVSCKASGYTFTNYWMHWVKQRPGQGLEWIGRIHPFDTETNDNQKFKGKATLTVDKSSSTAYMQLSSLTSEDSAVYYCVIPANGGFAYWGQGTLVTVSA
# VL: ETTVTQSPASLSVATGEKVTIRCITSTDIGDDMNWYQQKPGEPPKVLISEGNSLRPGVPSRFSSSGYGTDFVFTIENTLSEDVADYFCLQSDNLPLTFGSGTKLEIK
# B8: MTK-227 (antibody, human IgG1, V domains shown)
# VH: EVKLVESGGGLVQPGGSLSLSCAASGFTFTDNYMTWVRQPPGKALEWLGFSRNKANGYTTEYSASVKGRFTISRDSSQSILYLQMNALRAEDSGTYYCARFPPHYYAGGYFDVWGTGTTVTVSS
# VL: DIQMTQSPASLSASVGETVTITCRASENIYSYLAWYQQKQGKSPQLLVYNAKTLAEGVPSRFSGSGSGTQFSLKINSLQPADFGSYYCQHYYRTPPTFGGGTKLEIK
# B9: MTK-230 (antibody, human IgG1, V domains shown)
# VH: EVQLQQSGPELVKPGASVRIPCKASGYTFSDYNMDWVKQSHGKSLEWIGNINPNIGGTIYSQKFKGKATLTVDKSSSTAYMELRSLTSEDTAVYYCARGDYGFASWGQGTLVTVSA
# VL: DIVLTQSPASLTVSLGQRATISCRASRSVSTSGYSYMHWYQQKPGQPPKLLIYLASNLESGVPARFSGSRSGTDFTLNIHPVEEEDAATYYCQHSREYPFTFGSGTKLEIK
# B10: MTK-223 (antibody, human IgG1, V domains shown)
# VH: DVQLQESGPGLVKPSQSLSLTCSVTGYSITSGYYWNWIRQFPGNKLEWMGYISYDGTNNYNPSLKNRISITRDTSENQFFLKLNSVTTEDTATYFCVRGAGYWGQGTTLTVSS
# VL: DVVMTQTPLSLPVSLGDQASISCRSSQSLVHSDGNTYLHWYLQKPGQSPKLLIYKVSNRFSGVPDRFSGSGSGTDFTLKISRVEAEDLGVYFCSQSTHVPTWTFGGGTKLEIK
# B11: MTK-216 (antibody, human IgG1, V domains shown)
# VH: EVQLVESGGGLVKPGGSLKLSCAASGFTFSDYGMHWVRQAPEKGLEWVAFISSGSTTIYYADTVKGRFTISRDNAKNTLILQMTSLRSEDTAIYYCTRGGFHLDYWGQGTTLTVSS
# VL: SIMMTQSPSSLAVSAGEKVTMGCKSSQSVLYSANQQNYLAWYQQKPGQSLKLLIYWASTRESGVPDRFTGSGSGTDFTLTISSVQAEDLAVYYCHQYFSSWTFGGGTKLEIK
# B12: MTK-206 (antibody, human IgG1, V domains shown)
# VH: QVQLQQSGAELARPGASVKMSCKASGYTFTSYTMHWVKQRPGQGLEWIGYINPSSGYIKNSQKFKDKATLTADKSSSTAYMQLSSLTSEDSAVYYCARTVYGYYGSSPDYWGQGTTLTVSS
# VL: DIQMTQSPSSLSASLGERVSLTCRASQDIGSNLNWLQQEPDGTIKRLIYATSSLESGVPKRFSGSRSGSDYSLTISSLESEDFVDYYCLQYDSSPWTFGGGTKLEIK
# B13: MTK-215 (antibody, human IgG1, V domains shown)
# VH: EVQLVESGGGLVKPGGSLKLSCAASGFIFSDYGMHWVRQAPEKGLEWVAYISSGSSTIYYGDTVKGRFTISRDNAKNTLFLQMTSLRSEDTAMYYCAKGGRYGAMDYWGHGTSVTVSS
# VL: DIVLTQSPATLSVTPGDSVSLSCRASQSISNNLHWYQQKSHESPRLLIKNPSQSISGIPSRFGARGSGTDFTLIINSVETEDLGVYFCQQSNSWPFTFGSGTKLEIK
# Target: T1, mouse MerTK overexpressed on CHO cells
# Test: FACS, CHO-muMerTK OE cells, 10 ug/ml
# Protocol: To determine whether recombinant anti-human MerTK antibodies of the present disclosure bind to human MerTK endogenously expressed on SK-MEL-5 cells and CHO cells overexpressing mouse MerTK (CHO-muMerTK OE cells), as compared to A375 and parental CHO cells as negative controls, the following experiments were performed. SK-MEL-5 cells, A375 cells, CHO-muMerTK OE cells, and CHO parental cells were plated at 100,000 cells/well. Anti-MerTK antibodies were added to the cells at 10 μg/ml. After 60 minutes on ice, cells were washed and then stained with PE-conjugated goat anti-human IgG antibody (Southern Biotech Cat #2040-09, Birmingham, AL) in the presence of Fc block solution on ice for 30 minutes, and then washed twice with cold FACS buffer (2% FBS in PBS). Mouse anti-human MerTK-PE conjugated (Biolegend, Clone 590H11G1E3) or anti-mouse MerTK-PE conjugated (ThermoFisher, Clone DS5MMER) antibodies were used as positive controls. Stained cells were acquired on a BD FACS Canto II cytometer and the mean fluorescence intensity (MFI) was calculated with FlowJo.
row,MFI,Binder
1,616 MFI,B1
2,1220 MFI,B2
3,252 MFI,B3
4,17400 MFI,B4
5,13200 MFI,B5
6,11500 MFI,B6
7,2080 MFI,B7
8,14200 MFI,B8
9,12400 MFI,B9
10,234 MFI,B10

# Target: T2, Recombinant human MerTK-human Fc …
# Test: blocking ELISA, Gas6-His on MerTK-Fc, Ab 66.6 nM, isotype=100%
# Protocol: (§1) Briefly, rabbit anti-human IgG antibody (Jackson ImmunoResearch, Cat #309-005-008) was coated at 2 μg/ml onto high-protein binding plates at 4° C. overnight. After washing with 0.05% Tween20 in PBS three times, 5% BSA in PBS was added for 1 hour. Recombinant human MerTK-human Fe Chimera protein (R&D systems, Cat #391-MR-100) was added at 2 μg/ml for 1 hour and plates were washed before the addition of 40 μl of anti-MerTK hybridoma supernatants and 40 μl of His tag-conjugated recombinant Gas6 (R&D systems, Cat #885-GSB-050) at 3 μg/ml or His tag-conjugated recombinant ProS (R&D systems, Cat #9489-PS-100) at 20 μg/ml. After a further incubation for 1 hour, plates were washed and incubated for 1 hour with HRP-conjugated anti-6×His tagged antibody (Abcam, Cambridge, MA, Cat #ab1187). Plates were then washed and an HRP substrate, TMB, was added to develop the plates. The reaction was stopped by adding 50 μl 2N H₂SO₄ and the OD was measured using a spectrophotometer (BioTek).
# (§2) Anti-MerTK antibodies were titrated to a final concentration from 66.6 nM to 4 pM and tested against anti-human MerTK antibody M6 (disclosed in WO2016/106221) or isotype control antibody.
row,Percent Gas6 ligand binding,Binder
1,104%,B11
2,112%,B3
3,110%,B4
4,112%,B5
5,109%,B6
6,103%,B12
7,99.9%,B8
8,107%,B10
9,110%,B13

# Target: T2, Recombinant human MerTK-human Fc …
# Test: blocking ELISA, ProS-His on MerTK-Fc, Ab 66.6 nM, isotype=100%
# Protocol: as §1, §2
row,Percent ProS ligand binding,Binder
1,72.8%,B11
2,94.3%,B3
3,216%,B4
4,179%,B5
5,175%,B6
6,132%,B12
7,84.5%,B8
8,37.4%,B10
9,81.6%,B13
